The target of experiment [1] is Xenopus activin receptor xActRIIB, expressed in Xenopus embryos from injected synthetic RNA (Xenopus) (UniProt P27041). Nature of the experiment: cell-based or functional assay.
Experiment [2] addresses T1, Mouse activin receptor, full length (encoded by clone pmActR2), expressed on transfected COS cells (mouse, UniProt P27038 20-513).
T1 construct: also called mActRII; ActRII
Nature of the experiment: competition with 125I activin A on COS cells transfected with pmActR2. As to the method: (§1) 10⁵ COS cells transfected with either pmActR1 or pmActR2, or 10⁶ untransfected COS cells, were plated in 6 well dishes and allowed to grow overnight. The cells were washed 2× with HDB, 0.1% BSA, and incubated at 22° for 90 minutes in 0.5 ml HDB, 0.1% BSA containing 100,000 cpm (approximately 1 ng, 75 pM) ¹²⁵I activin A (5 μg activin A was iodinated by chloramine T oxidation to a specific activity of 50-90 μCi/μg; iodinated activin A was purified on a 0.7×20 cm G-25 column) and varying amounts of unlabeled competitor hormone. Following binding, the cells were washed 3× with cold HDB, solubilized in 0.5 ml 0.5 N NaOH, removed from the dish and radioactivity was measured in a gamma counter. Data presented in FIG. 5 are expressed as % specific binding, where 100% specific binding is the difference between binding in the absence of competitor and binding in the presence of a 100 fold molar excess of unlabeled activin A. Binding parameters were determined using the program LIGAND [Munson P. J. and Rodbard, D., Anal. Biochem. 107:220-259 (1980)].
This affinity and specificity of binding match those observed following binding of activin A to a number of other activin-responsive cell types. […]

Experiment [3] concerns the target T2, Mouse activin receptor, C-terminally truncated (encoded by clone pmActR1), expressed on transfected COS cells (mouse, UniProt P27038 20-354).
T2 construct: pmActR1 codes for a protein of 342 amino acids, the last 17 of them from the vector; It lacks a complete intracellular kinase domain; the real chain is truncated and its signal peptide (1-19) is removed
Nature of the experiment: 125I activin A competition radioreceptor assay on COS cells transfected with pmActR1; Scatchard/LIGAND. The protocol: as §1
(§2) To verify that the cloned receptor is activin specific, competition binding experiments were performed on COS cells transiently transfected with either pmActR1 or pmActR2. […] This binding affinity is consistent with that measured on other activin-responsive cell types [see, for example, Campen, C. A. and Vale, W., Biochem. Biophys. Res. Comm. […]

For experiment [4], the target named is T1, Mouse activin receptor, full length …. Nature of the experiment: 125I activin A competition radioreceptor assay on COS cells transfected with pmActR2; LIGAND. The protocol:
as §1, §2

T1 sequence (P27038 20-513): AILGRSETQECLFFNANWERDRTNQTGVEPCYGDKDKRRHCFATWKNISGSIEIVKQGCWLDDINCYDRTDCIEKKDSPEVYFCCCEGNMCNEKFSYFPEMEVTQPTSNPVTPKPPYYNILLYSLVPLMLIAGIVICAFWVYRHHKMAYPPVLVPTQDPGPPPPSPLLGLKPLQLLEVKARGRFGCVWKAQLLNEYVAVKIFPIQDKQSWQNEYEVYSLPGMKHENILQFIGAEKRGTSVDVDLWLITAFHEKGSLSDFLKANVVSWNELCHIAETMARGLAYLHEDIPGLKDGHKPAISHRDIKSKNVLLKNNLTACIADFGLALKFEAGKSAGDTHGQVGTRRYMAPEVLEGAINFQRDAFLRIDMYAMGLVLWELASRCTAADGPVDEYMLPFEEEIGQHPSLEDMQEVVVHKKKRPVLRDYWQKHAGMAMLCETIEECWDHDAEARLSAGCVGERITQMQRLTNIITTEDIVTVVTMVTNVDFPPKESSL
Chain of Xenopus activin receptor xActRIIB, expressed in Xenopus embryos from injected synthetic RNA (Xenopus) (P27041 other isoform, or with tags, fused parts or gaps): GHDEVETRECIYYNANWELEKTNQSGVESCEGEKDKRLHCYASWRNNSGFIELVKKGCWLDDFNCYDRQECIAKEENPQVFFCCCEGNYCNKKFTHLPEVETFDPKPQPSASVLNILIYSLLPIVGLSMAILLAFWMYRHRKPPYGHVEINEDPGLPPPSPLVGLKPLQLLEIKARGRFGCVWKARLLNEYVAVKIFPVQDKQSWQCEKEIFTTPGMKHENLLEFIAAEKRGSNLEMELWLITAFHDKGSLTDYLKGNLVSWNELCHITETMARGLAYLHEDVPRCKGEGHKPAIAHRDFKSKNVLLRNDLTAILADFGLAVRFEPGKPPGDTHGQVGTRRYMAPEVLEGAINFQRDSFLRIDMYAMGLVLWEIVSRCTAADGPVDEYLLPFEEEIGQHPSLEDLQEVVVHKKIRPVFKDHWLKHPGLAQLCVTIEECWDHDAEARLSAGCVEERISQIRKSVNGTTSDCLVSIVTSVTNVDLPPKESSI
T2 sequence (P27038 20-354 limits assumed, form in doubt): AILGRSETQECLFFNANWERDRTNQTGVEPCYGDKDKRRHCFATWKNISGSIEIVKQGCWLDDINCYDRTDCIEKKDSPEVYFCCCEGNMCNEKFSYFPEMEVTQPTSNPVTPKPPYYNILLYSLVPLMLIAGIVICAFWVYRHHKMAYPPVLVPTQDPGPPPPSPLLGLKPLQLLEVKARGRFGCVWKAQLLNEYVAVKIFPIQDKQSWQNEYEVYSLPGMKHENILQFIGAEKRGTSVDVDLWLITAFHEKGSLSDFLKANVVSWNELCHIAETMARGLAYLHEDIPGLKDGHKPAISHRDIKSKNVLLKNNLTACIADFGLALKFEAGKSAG

In experiment [1], “Purified porcine activin A (from UniProt P03970 309-424) (ligand)” showed a muscle-specific actin RNA in animal caps (ribonuclease protection assay); sensitivity to activin against control embryos, embryos injected with 0.4 ng xActRIIB RNA of 10 fold and a muscle-specific actin RNA in animal caps (ribonuclease protection assay); sensitivity to activin against control embryos, embryos injected with 2.0 ng xActRIIB RNA of 100 fold.

B1: Recombinant human (rh) inhibin A (ligand)
chain 1: STPLMSWPWSPSALRLLQRPPEEPAAHANCHRVALNISFQELGWERWIVYPPSFIFHYCHGGCGLHIPPNLSLPVPGAPPTPAQPYSLLPGAQPCCAALPGTMRPLHVRTTSDGGYSFKYETVPNLLTQHCACI
chain 2: GLECDGKVNICCKKQFFVSFKDIGWNDWIIAPSGYHANYCEGECPSHIAGTSGSSLSFHSTVINHYRMRGHSPFANLKSCCVPTKLRPMSMLYYDDGQNIIKKDIQNMIVEECGCS
As for B1, the “fold lower potency than activin A in competition” value in experiment [2] was roughly 10 fold.

B2: Recombinant human (rh) activin A (ligand, UniProt P08476 311-426, looked up)
chain: B1 chain 2
notes: also called 125I activin A; iodinated activin A
B2: the Kd in experiment [3] and in experiment [4] was 0.18 nM throughout.

B3: Recombinant human (rh) activin B (ligand, UniProt P09529 293-407, looked up)
chain: GLECDGRTNLCCRQQFFIDFRLIGWNDWIIAPTGYYGNYCEGSCPAYLAGVPGSASSFHTAVVNQYRMRGLNPGTVNSCCIPTKLSTMSMLYFDDEYNIVKRDVPNMIVEECGCA
Regarding B3, the binding result in experiment [2] was “binds”.

(Values after patent US20050186593A1 (SALK INSTITUTE FOR BIOLOGICAL STUDIES, published 2005).)
